Data reported in patent publication US20240228986A1, “ENGINEERED CELLS, ENZYMES, AND METHODS FOR PRODUCING CANNABINOIDS” (priority 2021, published 2024).

B1: GPS1.1-F11-MPT26: fusion protein, SEQ ID NO: 26 (protein)
chain: MSKAKFESVFPRISEELVQLLRDEGLPQDAVQWFSDSLQYNCVGGKLNRGLSVVDTYQLLTGKKELDDEEYYRLALLGWLIELLQAFWLVSDDIMDESKTRRGQPCWYLKPKVGMIAIWDAFMLESGIYILLKKHFRQEKYYIDLVELFHDISFKTELGQLVDLLTAPEDEVDLNRFSLDKHSFIVRYKTAYYSFYLPVVLAMYVAGITNPKDLQQAMDVLIPLGEYFQVQDDYLDNFGDPEFIGKIGTDIQDNKCSWLVNKALQKATPEQRQILEDNYGVKDKSKELVIKKLYDDMKIEQDYLDYEEEVVGDIKKKIEQVDESRGFKKEVLNAFLAKIYKRQKGGAEAAAKEAAAKAGGSGGGSGGGGSGGSGGGGSGGGGSMSDNSIATKILNFGHTCWKLQRPYVVKGMISIACGLFGKELLHNTNLISWGLMWKAFFALVPILSFNFFAAIMNQIYDVDIDRINKPDLPLVSGEMSIETAWILSIIVALTGLIVTIKLKSAPLFVFIYIFGIFAGFAYSVPPIRWKQNPSTNFLITISSHVGLAFTSYSATTSALGLPFVWRPAFSFIIAFMTVMGMTIAFAKDISDIEGDAKYGVSTVATKLGARNMTFVVSGVLLLNYVAAILAGIIWPQAFNSNVMLLSHAILAFWLILQTRDFALTNYDPEAGRRFFEFIWLLYYAEYFVYVFI
modifications: GPS1.1-F11-MPT26, geranyl diphosphate synthase, recombinant membrane-bound prenyltransferase fusion protein
B2: GPS1.1-F11-MPT31: fusion protein, SEQ ID NO: 27 (protein)
chain: MSKAKFESVFPRISEELVQLLRDEGLPQDAVQWFSDSLQYNCVGGKLNRGLSVVDTYQLLTGKKELDDEEYYRLALLGWLIELLQAFWLVSDDIMDESKTRRGQPCWYLKPKVGMIAIWDAFMLESGIYILLKKHFRQEKYYIDLVELFHDISFKTELGQLVDLLTAPEDEVDLNRFSLDKHSFIVRYKTAYYSFYLPVVLAMYVAGITNPKDLQQAMDVLIPLGEYFQVQDDYLDNFGDPEFIGKIGTDIQDNKCSWLVNKALQKATPEQRQILEDNYGVKDKSKELVIKKLYDDMKIEQDYLDYEEEVVGDIKKKIEQVDESRGFKKEVLNAFLAKIYKRQKGGAEAAAKEAAAKAGGSGGGSGGGGSGGSGGGGSGGGGSMSDNSIATKILNFGHACWKLQRPYVVKGMISIACGLFGRELLHNTNLISWGLMWKAFFALVPILSFNFFAAIMNQIYDLHIDRINKPDLPLASGEISVNTAWIMSIIVALTGLIVTIKLKSAPLFVFIYIFGIFAGFAYSVPPIRWKQNPSTNFLITISSHVGLAFTSYYASRAALGLPFELRPSFTFLLAFMTVMGMTIAFAKDISDIEGDAKYGVSTVATKLGARNMTFVVSGVLLLNYLVSISIGIIWPQVFKSNIMILSHAILAFWLILQTRDFALTNYDPEAGRRFFEFIWLLYYAEYLVYVFI
modifications: GPS1.1-F11-MPT31, geranyl diphosphate synthase, recombinant membrane-bound prenyltransferase fusion protein
B3: GPS1.1-F16-APT73.77: fusion protein, SEQ ID NO: 63 (protein)
chain: MSKAKFESVFPRISEELVQLLRDEGLPQDAVQWFSDSLQYNCVGGKLNRGLSVVDTYQLLTGKKELDDEEYYRLALLGWLIELLQAFWLVSDDIMDESKTRRGQPCWYLKPKVGMIAIWDAFMLESGIYILLKKHFRQEKYYIDLVELFHDISFKTELGQLVDLLTAPEDEVDLNRFSLDKHSFIVRYKTAYYSFYLPVVLAMYVAGITNPKDLQQAMDVLIPLGEYFQVQDDYLDNFGDPEFIGKIGTDIQDNKCSWLVNKALQKATPEQRQILEDNYGVKDKSKELVIKKLYDDMKIEQDYLDYEEEVVGDIKKKIEQVDESRGFKKEVLNAFLAKIYKRQKGGGSGGGSGGGSGGGGSMDEVYAAVEQTSRLLDVPCSPDRFEPVWKAFGDQLPDSHLVFSMAAGEAHRGELDFDFSLRPEGADPYTTALEHGFIEPTDHPVGSVLAEVGKRFAIASYGVEYGVVGGFKKSYAFFPLDDFPPLAQFAEVPSVPPCLAGHVETLTRLGFDDKVSIIGVNYRKNTLNVYLAASAVDTGDKLALLRAFGYPEPDARVRQFIERSFRLYPTFNWDSSAAERICFAVHTQQPGELPAPHDEPTEAFARQVPHVYEGGREFVSGVALAPSGASYYKLAALYQKARRCLD
modifications: GPS1.1-F16-APT73.77, geranyl diphosphate synthase, mutant soluble aromatic prenyltransferase fusion protein
B4: GPS1.1-F18-APT73.77: fusion protein, SEQ ID NO: 65 (protein)
chain: MSKAKFESVFPRISEELVQLLRDEGLPQDAVQWFSDSLQYNCVGGKLNRGLSVVDTYQLLTGKKELDDEEYYRLALLGWLIELLQAFWLVSDDIMDESKTRRGQPCWYLKPKVGMIAIWDAFMLESGIYILLKKHFRQEKYYIDLVELFHDISFKTELGQLVDLLTAPEDEVDLNRFSLDKHSFIVRYKTAYYSFYLPVVLAMYVAGITNPKDLQQAMDVLIPLGEYFQVQDDYLDNFGDPEFIGKIGTDIQDNKCSWLVNKALQKATPEQRQILEDNYGVKDKSKELVIKKLYDDMKIEQDYLDYEEEVVGDIKKKIEQVDESRGFKKEVLNAFLAKIYKRQKGGGGSLEDPAVWEAGKVVAKGVGTADITATTSNGLIASSEEADNAATSMDEVYAAVEQTSRLLDVPCSPDRFEPVWKAFGDQLPDSHLVFSMAAGEAHRGELDFDFSLRPEGADPYTTALEHGFIEPTDHPVGSVLAEVGKRFAIASYGVEYGVVGGFKKSYAFFPLDDFPPLAQFAEVPSVPPCLAGHVETLTRLGFDDKVSIIGVNYRKNTLNVYLAASAVDTGDKLALLRAFGYPEPDARVRQFIERSFRLYPTFNWDSSAAERICFAVHTQQPGELPAPHDEPTEAFARQVPHVYEGGREFVSGVALAPSGASYYKLAALYQKARRCLD
modifications: GPS1.1-F18-APT73.77, geranyl diphosphate synthase, mutant soluble aromatic prenyltransferase fusion protein
B5: APT73.77-F17-GPS1.1: fusion protein, SEQ ID NO: 64 (protein)
chain: MDEVYAAVEQTSRLLDVPCSPDRFEPVWKAFGDQLPDSHLVFSMAAGEAHRGELDFDFSLRPEGADPYTTALEHGFIEPTDHPVGSVLAEVGKRFAIASYGVEYGVVGGFKKSYAFFPLDDFPPLAQFAEVPSVPPCLAGHVETLTRLGFDDKVSIIGVNYRKNTLNVYLAASAVDTGDKLALLRAFGYPEPDARVRQFIERSFRLYPTFNWDSSAAERICFAVHTQQPGELPAPHDEPTEAFARQVPHVYEGGREFVSGVALAPSGASYYKLAALYQKARRCLDGGGGSMSKAKFESVFPRISEELVQLLRDEGLPQDAVQWFSDSLQYNCVGGKLNRGLSVVDTYQLLTGKKELDDEEYYRLALLGWLIELLQAFWLVSDDIMDESKTRRGQPCWYLKPKVGMIAIWDAFMLESGIYILLKKHFRQEKYYIDLVELFHDISFKTELGQLVDLLTAPEDEVDLNRFSLDKHSFIVRYKTAYYSFYLPVVLAMYVAGITNPKDLQQAMDVLIPLGEYFQVQDDYLDNFGDPEFIGKIGTDIQDNKCSWLVNKALQKATPEQRQILEDNYGVKDKSKELVIKKLYDDMKIEQDYLDYEEEVVGDIKKKIEQVDESRGFKKEVLNAFLAKIYKRQK
modifications: APT73.77-F17-GPS1.1, mutant soluble aromatic prenyltransferase, geranyl diphosphate synthase fusion protein

Tests used:
olivetolic acid [1] = assay: MPT fusions with GPS1.1 vs unfused MPTs, OA feed (Example 8, Table 9); assay type: cell-based, Yarrowia; settings: 2 mM olivetolic acid, 48 h quench; for CBGA / FCBGA: 2% glucose, strain sCL-SE-0128; for CBGA/FCBGA: product ratio
Description: (§1) As described below, plasmids pCL-SE-0406, pCL-SE-0664, pCL-SE-0663, pCL-SE-0662, pCL-SE-0380 (MPT4), pCL-SE-0337.MPT21, pCL-SE-0337.MPT26, and pCL-SE-0337.MPT31 were transformed into strain sCL-SE-0128. Multiple colonies per transformation were precultured for 48 h in YNB containing glucose (2%), casamino acids (0.5%), and MES (100 mM pH 6.5). Pre-culture was used to inoculate assay medium comprised of YNB containing glucose (2%), casamino acids (0.5%), MES (100 mM pH 6.5), and olivetolic acid (2 mM). Cultures were quenched with equal volume of ethanol after 48 h total growth and assayed for CBGA and FCBGA. Averages and standard deviations were calculated from replicates.
(§2) Overnight YPD (10 g/L yeast extract, 20 g/L peptone, 2% dextrose) cultures were inoculated from glycerol stocks of the appropriate strain and grown at 30° C. with 250 rpm shaking. Once cultures had reached an OD600 of 4-6, cultures were centrifuged at 500×g for 5 min, supernatants were discarded, and cell pellets were resuspended in equal volume of water. Resuspended cells were centrifuged at 500×g for 5 min, supernatants were discarded, and cells were resuspended in a volume (75 μL×OD×Vculture) of transformation cocktail (45% PEG-400, 0.1 M LiAc, 0.1 M DTT, and 25 ug/100 μL SS Salmon Sperm DNA). For each transformation, >1 μg of plasmid DNA was added to 55 μL cells/transformation cocktail and vortexed for 2 s. Transformations were incubated at 39° C. for 1 h with 250 rpm shaking. Transformations were resuspended in 750 μL YPD with 1 M sorbitol and recovered at 30° C. overnight with 250 rpm shaking. The next day, transformations were centrifuged at 500×g for 5 min, supernatants were discarded, and cell pellets were resuspended in 750 YPD. Resuspended transformations were plated on YPD with appropriate selection or YNBD (6.71 g/L yeast nitrogen base+nitrogen, 0.5% casamino acids, 2% dextrose) agar plates and grown at 30° C. for 2 days. Individual colonies were patched onto YPD plates with appropriate selection or YNBD plates and grown at 30° C. overnight. Patches were used to inoculate 0.5 mL YPD with appropriate selection or YNBD precultures in 96 w blocks and grown at 30° C. for 24-48 h with 1000 rpm shaking. For assays, 0.5 mL YPD with appropriate selection or YNBD cultures containing substrate were inoculated with 2 μL from precultures and grown at 30° C. for 2-4 days with 1000 rpm shaking with 2% glucose added every 24 h. Assay cultures were quenched by addition of 0.5 mL ethanol with 0.2% formic acid and 0.5 mg/mL pentyl-benzoic acid. Precipitates were pelleted by centrifuging at 4600×g for 10 min and then 200 μL was transferred to fresh plates, sealed, and analyzed via HPLC.
(§3) All samples were quenched with equal volume of EtOH containing 0.2 mg/mL internal standard (3,5-Diisopropyl-2-hydroxybenzoic acid CAS #2215-21-6) centrifuged, and clarified solutions were analyzed by HPLC-MS
(§4) • Column: 2.1×50 mm COSMOCORE PBr (Nacalai USA, Inc.) • Mobile Phase: A; 0.1% formic acid in water, B; 0.1% formic acid in acetonitrile • Flow: 0.45 mL/min • Temp: % 50 Celsius • Gradient: 20%B at 0 min, 70%B at 2.3 min, 89% B at 4.2 min, 20% B at 4.3 min, 20%B at 6 min

olivetolic acid [2] = assay: GPS-APT fusions, OA feed in vivo assay (Example 11); assay type: cell-based, Yarrowia; settings: for CBGA / FCBGA: olivetolic acid feed as in Example 8, 48 h quench, strain sCL-SE-0128; for CBGA/FCBG: olivetolic acid feed, 48 h quench, product ratio
Description: as §1
Soluble prenyl transferase APT73.77 was fused with GPS1.1 at the N- or C-terminus with different linkers creating the plasmids shown in Table 14. These fusion proteins were expressed and screened as described in Example 8 (olivetolic acid feed)
as §2, §3, §4

Molecule	CBGA (olivetolic acid [1]) [µM]	FCBGA (olivetolic acid [1]) [µM]	CBGA/FCBGA (olivetolic acid [1])	CBGA (olivetolic acid [2]) [µM]	FCBGA (olivetolic acid [2]) [µM]	CBGA/FCBG (olivetolic acid [2])
B1	98 ± 8	21 ± 2	4.6	–	–	–
B2	53 ± 4	5 ± 0	10.8	–	–	–
B3	–	–	–	421 ± 44	113 ± 12	3.7
B4	–	–	–	468 ± 24	121 ± 2	3.9
B5	–	–	–	242 ± 36	73 ± 9	3.3
